For the experiment, the target named is T1, VP16-ERα chimera (full-length ERα fused to the Herpes simplex virus VP16 transactivation domain) (Herpes simplex virus, UniProt P03372 1-595).
T1 construct: Expressed in HeLa cells for the mammalian two-hybrid assay; also called pACT-ERα
T1 sequence: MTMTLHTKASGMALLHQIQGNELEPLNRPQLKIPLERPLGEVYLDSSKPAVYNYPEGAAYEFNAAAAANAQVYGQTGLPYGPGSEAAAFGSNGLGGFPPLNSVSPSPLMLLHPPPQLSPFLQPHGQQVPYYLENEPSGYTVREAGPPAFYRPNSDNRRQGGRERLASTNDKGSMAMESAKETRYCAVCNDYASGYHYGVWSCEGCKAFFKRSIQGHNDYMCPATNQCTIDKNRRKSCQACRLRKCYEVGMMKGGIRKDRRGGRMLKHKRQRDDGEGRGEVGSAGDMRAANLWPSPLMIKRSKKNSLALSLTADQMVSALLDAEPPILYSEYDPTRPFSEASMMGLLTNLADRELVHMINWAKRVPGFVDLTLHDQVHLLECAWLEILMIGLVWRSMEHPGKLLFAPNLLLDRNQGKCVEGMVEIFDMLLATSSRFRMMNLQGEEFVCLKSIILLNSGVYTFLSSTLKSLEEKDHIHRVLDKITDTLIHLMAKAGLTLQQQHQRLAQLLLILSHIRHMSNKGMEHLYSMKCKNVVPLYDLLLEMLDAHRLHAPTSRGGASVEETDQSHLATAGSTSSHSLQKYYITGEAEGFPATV
Nature of the experiment: mammalian two-hybrid (luciferase reporter) in HeLa cells, hormone-free. (Reporter assays use an easily measured gene product as a stand-in for the process of interest.)

The results in this text go back to patent publication US20090062179A1 (University of Texas, published 2009).

B1: GAL4-DBC-1-C terminal chimera (amino acids 479-923) (other, yeast;human, UniProt P04386 1-147, looked up)
chain: MKLLSSIEQACDICRLKKLKCSKEKPKCAKCLKNNWECRYSPKTKRSPLTRAHLTEVESRLERLEQLFLLIFPREDLDMILKMDSLQDIKALLTGLFVQDNVNKDAVTDRLASVETDMPLTLRQHRISATSSSEESSNKGQRQLTVSRRNAETPEATTQQETDTDLPEAPPPPLEPAVIARPGCVNLSLHGIVEDRRPKERISFEVMVLAELFLEMLQRDFGYRVYKMLLSLPEKVVSPPEPEKEEAAKEEATKEEEAIKEEVVKEPKDEAQNEGPATESEAPLKEDGLLPKPLSSGGEEEEKPRGEASEDLCEMALDPELLLLRDDGEEEFAGAKLEDSEVRSVASNQSEMEFSSLQDMPKELDPSAVLPLDCLLAFVFFDANWCGYLHRRDLERILLTLGIRLSAEQAKQLVSRVVTQNICQYRSLQYSRQEGLDGGLPEEVLFGNLDLLPPPGKSTKPGAAPTEHKALVSHNGSLINVGSLLQRAEQQDSGRLYLENKIHTLELKLEESHNRFSATEVTNKTLAAEMQELRVRLAEAEETARTAERQKSQLQRLLQELRRRLTPLQLEIQRVVEKADSWVEKEEPAPSN
notes: Expressed in HeLa cells for the mammalian two-hybrid assay
B1: the binding result is recorded as “no binding”.
